Data published in patent US20170058030A1.
Each block holds one substance with its values, some of them ahead of it.

Assays:
FcγRI-His (human) [1] = molecular target: FcγRI-His (human) (UniProt P12314); assay: SPR, IgG on chip, 200 nM monomeric FcγRI
FcγRIIb-GST (human) [2] = molecular target: FcγRIIb-GST (human) (UniProt P31994); assay: SPR, IgG on chip, dimeric FcγRIIB, bivalent fit, KD = KD1/(1 + 1/KD2)
FcγRI-His (human) [3] = molecular target: FcγRI-His (human) (UniProt P12314); assay: ELISA, IgG coated, 60 nM FcγRI
FcγRIIb-GST (human) [4] = molecular target: FcγRIIb-GST (human) (UniProt P31994); assay: ELISA, IgG coated, 60 nM receptor
[5] = molecular target: FcγRIIIa-V158-GST (human) (UniProt P08637); assay: ELISA, IgG coated, 200 nM receptor
[6] = molecular target: FcγRIIIa-F158-GST (human) (UniProt P08637); assay: ELISA, IgG coated, 200 nM receptor
FcγRIIa-R131-GST (human) [7] = molecular target: FcγRIIa-R131-GST (human) (UniProt P12318); assay: ELISA, IgG coated, 200 nM receptor
FcγRIIa-H131-GST (human) [8] = molecular target: FcγRIIa-H131-GST (human) (UniProt P12318); assay: ELISA, IgG coated, 200 nM receptor
FcγRIIb-GST (human) [9] = molecular target: FcγRIIb-GST (human) (UniProt P31994); assay: SPR, IgG on chip, dimeric FcγRIIB, bivalent fit
mFcγRIII-His (mouse) [10] = molecular target: mFcγRIII-His (mouse) (UniProt P08508)
[11] = molecular target: FcγRIIIa-V158-GST (human) (UniProt P08637); assay: ELISA, STPK-Fc coated, receptor titrated
mFcγRII-His (mouse) [12] = molecular target: mFcγRII-His (mouse)
FcγRIIa-R131-GST (human) [13] = molecular target: FcγRIIa-R131-GST (human) (UniProt P12318); assay: ELISA: antibody coated on the plate, receptor titrated in 5-fold steps, HRP-labelled secondary antibody, absorbance at 450 nm
FcγRIIa-H131-GST (human) [14] = molecular target: FcγRIIa-H131-GST (human) (UniProt P12318); assay: as above
FcγRIIb-GST (human) [15] = molecular target: FcγRIIb-GST (human) (UniProt P31994); assay: FACS on spheroplasts, 400 nM FcγRIIB-GST
FcγRIIb-GST (human) [16] = molecular target: FcγRIIb-GST (human) (UniProt P31994); assay: FACS on spheroplasts, 400 nM FcγRIIB-GST; remark: listed apart in the source
[17] = molecular target: FcγRIIA (H131 and R131)-GST (human) (UniProt P12318); assay: FACS on spheroplasts, 400 nM FcγRIIA-GST
FcγRIIb-GST (human) [18] = molecular target: FcγRIIb-GST (human) (UniProt P31994); assay: FACS on spheroplasts, 100 nM FcγRIIb-GST-PE
mFcγRIV-His (mouse) = assay: FACS on spheroplasts, 1 µM mFcγRIV, anti-His-PE
mFcγRII-His (mouse) [19] = assay: FACS on spheroplasts, 100 nM b-mFcγRII, SA-PE
mFcγRI-His (mouse) = mFcγRI-His (mouse) (UniProt P08101); assay: FACS on spheroplasts, 1 µM mFcγRI, anti-His-PE
mFcγRIII-His (mouse) [20] = molecular target: mFcγRIII-His (mouse) (UniProt P08508); assay: FACS on spheroplasts, 1 µM mFcγRIII, anti-His-PE

Substance: Rituximab (glycosylated, wild-type IgG1 Fc) (antibody)
- RUmax (FcγRI-His (human) [1]): 260 RU
- Kd (FcγRIIb-GST (human) [2]): 8.07 µM
- absorbance at 450 nm (FcγRI-His (human) [3]): 1.51
- absorbance at 450 nm (FcγRIIb-GST (human) [4]): 0.183
- absorbance at 450 nm [5]: 0.848
- absorbance at 450 nm [6]: 0.203
- absorbance at 450 nm (FcγRIIa-R131-GST (human) [7]): 1.44
- absorbance at 450 nm (FcγRIIa-H131-GST (human) [8]): 2.35
- kD1 (FcγRIIb-GST (human) [9]): 8.69e-06
- kD2 (FcγRIIb-GST (human) [9]): 13.1

Substance: STPK-mFc (from UniProt P00779 27-440) (Fc fusion)
- Kd (mFcγRIII-His (mouse) [10]): 14.9 µM
- IC50 [11]: > 0.3 µM
- Kd (mFcγRII-His (mouse) [12]): 16.1 µM

Substance: wild-type aglycosylated IgG1 displayed on E. coli spheroplasts (antibody)
- MFI (FcγRIIb-GST (human) [15]): 14
- MFI (FcγRIIb-GST (human) [16]): 11.1
- MFI [17]: 40.9
- MFI (FcγRIIb-GST (human) [18]): 23.5

Further lines, results first:

- EC50 (read off the curve) (FcγRIIa-R131-GST (human) [13]): 0.01 µM
- EC50 (read off the curve) (FcγRIIa-H131-GST (human) [14]): 0.04 µM
Substance: glycosylated wild type IgG1 (control of Example 10) (antibody)

- MFI (mFcγRIV-His (mouse)): 155
- MFI (mFcγRII-His (mouse) [19]): 61.8
- MFI (mFcγRI-His (mouse)): 515
- MFI (mFcγRIII-His (mouse) [20]): 143
Substance: wild-type aglycosylated mIgG1 displayed on E. coli spheroplasts (antibody)
